{"source": "FireProtDB (doi:10.1006/jmbi.1993.1336)", "parents": {"B1": {"name": "Guanyl-specific ribonuclease T1, P00651 (parent)", "chain": "MMYSKLLTLTTLLLPTALALPSLVERACDYTCGSNCYSSSDVSTAQAAGYQLHEDGETVGSNSYPHKYNNYEGFDFSVSSPYYEWPILSSGDVYSGGSPGADRVVFNENNQLAGVITHTGASGNNFVECT"}}}
{"variants_of": "B1", "settings": "Aspergillus oryzae (strain ATCC 42149 / RIB 40); pH 5; 25 °C; GdnHCl; Fluorescence; Sodium acetate 0.1 M; reversible: yes; structure 1RN1; whole UniProt chain shown", "units": {"ddG of mutation (higher = less stable)": "kcal/mol", "denaturant m value": "kcal/mol/M", "denaturant midpoint (higher = more stable)": "M", "unfolding free energy": "kcal/mol"}}
{"variant": "MMYSKLLTLTTLLLPTALALPSLVERACDYTCGSNCYSSSDVSTAQAAGYQLHEDGETVGSNSYAHKYNNYEGFDFSVSSPYYEWPILSSGDVYSGGSPGADRVVFNENNQLAGVITHTGASGNNFVECT", "note": "[P65A]", "ddG of mutation (higher = less stable)": 5.12, "denaturant m value": 2.63, "denaturant midpoint (higher = more stable)": 1.71, "unfolding free energy": 4.88}
{"variants_of": "B1", "settings": "Aspergillus oryzae (strain ATCC 42149 / RIB 40); pH 8; 10 °C; GdnHCl; Fluorescence; Tris 0.1 M; reversible: yes; structure 1RN1; whole UniProt chain shown", "units": {"ddG of mutation (higher = less stable)": "kcal/mol", "denaturant m value": "kcal/mol/M", "denaturant midpoint (higher = more stable)": "M", "unfolding free energy": "kcal/mol"}}
{"variant": "MMYSKLLTLTTLLLPTALALPSLVERACDYTCGSNCYSSSDVSTAQAAGYQLHEDGETVGSNSYAHKYNNYEGFDFSVSSPYYEWPILSSGDVYSGGSPGADRVVFNENNQLAGVITHTGASGNNFVECT", "note": "[P65A]", "ddG of mutation (higher = less stable)": 4.33, "denaturant m value": 2.87, "denaturant midpoint (higher = more stable)": 1.43, "unfolding free energy": 4.11}
